Experimental data: the supplement of paper PMC11780869

Tested on: Bacillus subtilis
Assay: cleaved RNA product abundance (RNA/gDNA barcode ratio) relative to median wild-type variant (ratio to wild type); higher = more accumulation of the downstream cleavage product
Protocol: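 MPRA in B. subtilis. Mutagenized RNase Y cleavage-site regions (9% mutation rate) were inserted into a barcoded reporter mRNA (truncated aprE or tetM). Cells were grown in LB at 37°C to OD600 0.3. The cleaved RNA isoform was gel-purified and its barcodes counted; the RNA:gDNA barcode ratio was normalised to the median wild-type variant, and the median over barcodes is reported per variant. The printed sequence is the variable window only; the reporter flanks are not printed.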

[1] = experiment (reporter, strain, medium): exp 8a: truncated aprE reporter, strain BJT201 with 2% xylose (RNase J1 expressed), cleavage site: glnRA (positions -5 to +31 mutated)
[2] = experiment (reporter, strain, medium): exp 2b: truncated aprE reporter, strain BJT200, cleavage site: cggR-gapA (positions -7 to +36 mutated)
[3] = experiment (reporter, strain, medium): exp 4a: truncated aprE reporter, strain BJT201 with 2% xylose (RNase J1 expressed), cleavage site: cggR-gapA (positions -7 to +36 mutated)
[4] = experiment (reporter, strain, medium): exp 6: tetM reporter, strain 168, cleavage site: cggR-gapA (positions -7 to +36 mutated)

Sequence | cleaved RNA product abundance [1] | cleaved RNA product abundance [2] | cleaved RNA product abundance [3] | also measured
CGACATGTCCCGCTTCTTTCATTAATCCGTTAGCAACTGTTTTGCTATATACAATTATCTTTTAAGAGGAGGAAT | 0.873 |  |  | 
CGACATGTCCCGCTTCTTTCATTAATCCGTTAGCAACTGTTTTGCTATAGACATTTAACTTTTAAGAGGAGGAAT | 1.15 |  |  | 
CGACATGTCCCGCTTCTTTCATTAAACCGTTAGCAACTGTTTTGCTATATACATTTACCTTTTAAGAGGAGGAAT | 0.915 |  |  | 
ACAGACGAAGGAGCCGCAAAGAAGTTAATAAGGGATGAATCATCCCTCAATATAAATATCTCTCACTTATTTAAA |  | 0.188 | 0.314 | 
CGACATGTCCCGCTTCTTTCATTAATCCGTTAGCAACTGTTTAGGTATATACATTTACCTTTTAAGAGGAGGAAT | 0.227 |  |  | 
CGACATGTCCCGCTTCTTTCATTAATCCGTTAGCTATTGTTTTGCTATATACATTTACCTTTTAAGAGGAGGAAT | 0.432 |  |  | 
ACAGACGAAGGAGCCGCAAAGACGTTATTAAGGGATGAATAATCCCTCAAAATAAATATCTCTCACTTATTTAAA |  | 0.31 |  | 
CGACATGTCCCGCTTCTTTCATTAATCCGATAGCAACTGTTTTGCTATATACATTTAACTTTTAAGAGGAGGAAT | 0.63 |  |  | 
ACAGACGAAGGAGCCGCAAAGAAGTTACTAAGGGATGCATAATCCCTCAATATAAATATCTCTCACTTATTTAAA |  |  | 0.235 | 
ACAGACGAAGGAGCCGCAAAGAAGTTATTAAGGTATGAATAATCCGTCAATATAAATATCTCTCACTTATTTAAA |  | 0.0647 | 0.0909 | cleaved RNA product abundance [4]: 0.0676
ACAGACGAAGGAGCCGCAAAGAAGTTATTAAGGGATGAATAAACCATCAATATAAATATCTCTCACTTATTTAAA |  | 0.125 | 0.101 | 
CGACATGTCCCGCTTCTTTCATTAATCCGTTGCCAACTGTTTTGCTATATACATTTACCTTTTAAGAGGAGGAAT | 0.264 |  |  | 
ACAGACGAAGGAGCCGCAAAGAAGTTATTAAGGGATGAATAATCCATCAATATAAGTATCTCTCACTTATTTAAA |  |  | 0.0774 | 
CGACATGTCCCGCTTCTTTCATTAATCCGTTAGGAACTGTCTTGCTATATACATTTACCTTTTAAGAGGAGGAAT | 0.138 |  |  | 
CGACATGTCCCGCTTCTTTCATTAATCCATTAGAAACTGTTTTTCTATTTACATTTACCTTTTAAGAGGAGGAAT | 0.127 |  |  | 
ACAGACGAAGGAGCCGCAAAGAAGTTATTAAGAGATGAAAAATACCTCAATATAAATATCTCTCACTTATTTAAA |  |  | 0.146 | 
CGACATGTCCCGCTTCTTTCATTAATCCGTTAGCAACTGTACTGCTATATACATTTACCTTTTAAGAGGAGGAAT | 0.328 |  |  | 
ACAGACGAAGGAGCCGCACAGAAGTTATTAATGGATGAATAATCCCTCAATATAAATATCTCTCACTTATTTAAA |  | 0.103 | 0.165 | 
ACAGACGAAGGAGCCGCAGAGAAGTTATTAAGTGATGAATAATCCCTCAATATAAATATCTCTCACTTATTTAAA |  |  | 0.161 | 

Sequence | cleaved RNA product abundance [1] | cleaved RNA product abundance [2] | cleaved RNA product abundance [3] | also measured
ACAGACGAAGGAGCCGCGAAGAAGTAATTAAGGGATGAATAATCCCTCAATATAAATATCTCTCACTTATTTAAA |  | 0.178 |  | 
ACAGACGAAGGAGCCGCAAAGAAGTTATTAAAGGATGAATAATCCCTCAATATAAAAATCTCTCACTTATTTAAA |  | 0.147 | 0.244 | 
ACAGACGAAGGAGCCGCAAAGAAGTTATTAAGGGATGAAAAATCCCTCAATATAATTATCTCTCACTTATTTAAA |  |  | 0.171 | 
ACAGACGAAGGAGCCGCAAAGAACTTATTAAGGGATGAATAATCCCTCAATATAAATATCTCTCACTTATTTAAA |  | 0.448 | 0.509 | cleaved RNA product abundance [4]: 0.575
CGACATGTCCCGCTTCTTTCATTAATCCGTTACCAACTGTTTTGCTATATACAATTACCTTTTAAGAGGAGGAAT | 0.181 |  |  | 
ACAGACGAAGGAGCCGCAAAGAAGTTATTAAGCGATGAATAATCCCTCACTATAAATATCTCTCACTTATTTAAA |  | 0.0669 | 0.0749 | 
ACAGACGAAGGAGCCGCAAAGAAGTTATTAAGGGATGAATAATCCCTCCAAATAAATATCTCTCACTTATTTAAA |  | 0.239 | 0.313 | 
ACAGACGAAGGAGCCGCAAAGAAGTTATTAAGGGATGAATAATCCCTAAAAATAAATATCTCTCACTTATTTAAA |  | 0.213 | 0.423 | 
ACAGACGAAGGAGCCGCAAAGAAGTTAGTAAGCGATGAATAATCCCTCAATATAAATATCTCTCACTTATTTAAA |  |  | 0.0715 | 
CGACATGTCCCGCTTCTTTCATTAATCCGTTAGAAACTGTTTTGCTATACACATTTACCTTTTAAGAGGAGGAAT | 0.253 |  |  | 
ACAGACGAAGGAGCCGCTAAGAAGTTATTAAGGCATGAATAATCCCTCAATATAAATATCTCTCACTTATTTAAA |  | 0.115 |  | 
ACAGACGAAGGAGCCGCAAAGAAGTTATTAAGGGATTAACAATCCCTCAATATAAATATCTCTCACTTATTTAAA |  | 1.08 | 0.961 | 
ACAGACGAAGGAGCCGCAAAGAAGTTACTAAGGGATGAATAATCCCTCGATATAAATATCTCTCACTTATTTAAA |  |  | 0.227 | 
CGACATGTCCCGCTTCTTTCATTAATCCGTTAACAACTGTTTTGCGATATACATTTACCTTTTAAGAGGAGGAAT | 0.215 |  |  | 
CGACATGTCCCGCTTCTTTCATTAATCCGTTAGCAACTGTTTTAAAATATACATTTACCTTTTAAGAGGAGGAAT | 0.571 |  |  | 
ACAGACGAAGGAGCCGCTAAGAAGTTATTAAGAGATGAATAATCCCTCAATATAAATATCTCTCACTTATTTAAA |  | 0.126 | 0.135 | 
ACAGACGAAGGAGCCGCAAAAAAGTTATTAACGGATGAATAATCCTTCAATATAAATATCTCTCACTTATTTAAA |  |  | 0.191 | 
ACAGACGAAGGAGCCGCAAAGAAATTATTAAGGGATGACTAATCCCTCAATATAAATATCTCTCACTTATTTAAA |  | 0.453 | 0.573 | 
ACAGACGAAGGAGCCGCAAAGAAGTTATTAAGGGATAAATCATCCCTCAATATAAATATCTCTCACTTATTTAAA |  |  | 0.818 | 

Sequence | cleaved RNA product abundance [1] | cleaved RNA product abundance [2] | cleaved RNA product abundance [3] | also measured
ACAGACGAAGGAGCCGCGAAGAAGTTATTAAGGGATGAATAATCCCTCAATATAAATAACTCTCACTTATTTAAA |  | 1.05 | 0.969 | 
ACAGACGAAGGAGCCGCAAAGAAGTTTCTAAGGGATGAATAATCCCTCAATATAAATATCTCTCACTTATTTAAA |  | 0.234 | 0.344 | 
CGACATGTCCCGCTTCTTTCATTAATCCATTAGCAAATGTTTTGCTATATACATTTACCTTTTAAGAGGAGGAAT | 1.18 |  |  | 
ACAGACGAAGGAGCCGCTAAGAAGTTATTAAAGGATGAATAATCCCTCAATATAAATATCTCTCACTTATTTAAA |  |  | 0.157 | 
ACAGACGAAGGAGCCGCAAAGAAGTTATTAAAGGATAAATAAACCCTCAATATAAATATCTCTCACTTATTTAAA |  |  | 0.128 | 
ACAGACGAAGGAGCCGCAAAGAAGTTATTAAAGTATGAATAATCCCTCAATATAAATATCTCTCACTTATTTAAA |  | 0.0922 | 0.124 | 
ACAGACGAAGGAGCCGCAAATAAATTATTAAGGGAAGAATAATCCCTCAATATAAATATCTCTCACTTATTTAAA |  |  | 0.369 | 
ACAGACGAAGGAGCCGCAAAGAATTTATTAAGGGATGAATAATCCCTAAATATAAATATCTCTCACTTATTTAAA |  | 0.496 | 0.591 | 
ACAGACGAAGGAGCCGCAAAGACGTTATTAAGGGATGAATAATCCATCAATATAAATATCTCTCACTTATTTAAA |  | 0.156 | 0.312 | 
CGACATGTCCCGCTTCTTTCATTACTCCGTTAGCAACTGTTTTGCTGTATACATTTACCTTTTAAGAGGAGGAAT | 0.372 |  |  | 
CGACATGTCCCGCTTCTTTCATTAATCCGTTAGCATCTTTTTTGCTATATACATTTACCTTTTAAGAGGAGGAAT | 0.995 |  |  | 
CGACATGTCCCGCTTCTTTCATTAATCCGTTAGCAACTGTTTCGCTTTATACATTTACCTTTTAAGAGGAGGAAT | 0.267 |  |  | 
CGACATGTCCCGCTTCTTTCATTATTCCGTTAGCATCTGTTTTGCTATATACATTTACCTTTTAAGAGGAGGAAT | 1.34 |  |  | 
CGACATGTCCCGCTTCTTTCATTAACCCGTTACCAACTGTTTTGCTATATACATTTACCTTTTAAGAGGAGGAAT | 0.162 |  |  | 
ACAGACGAAGGAGCCGCAAAGAAGTTATTAAGGGATGAATAATCCCTAAATATTAATATCTCTCACTTATTTAAA |  | 0.189 |  | 
ACAGACGAAGGAGCCGCAAAGAAGTTTTTAAGGGATGTATAATCCCTCAATATAAATATCTCTCACTTATTTAAA |  | 0.285 | 0.331 | 
ACAGACGAAGGAGCCGCAAACAAGTTATTAAGGGATGAATAATCCCTAAATATAAATATCTCTCACTTATTTAAA |  |  | 0.47 | 
ACAGACGAAGGAGCCGCAAAGAAGTTATTAAGGGATGCATAATCCCTCAATTTAAATATCTCTCACTTATTTAAA |  | 0.177 |  | 
ACAGACGAAGGAGCCGCAAAGAAGTTATTAAAGGATGAATAATCCCTCAATATAAATAACTCTCACTTATTTAAA |  | 0.157 | 0.229 | 
